{"source": "paper PMC3790809", "key": {"[1]": {"target": "YsaL-His (YE3555 with N-terminal His tag, refolded) (Yersinia enterocolitica ATCC51871 (serotype O:8, biovar 1B))", "experiment": "SEC"}, "[2]": {"target": "YsaL-His (YE3555 with N-terminal His tag, refolded) (Yersinia enterocolitica ATCC51871 (serotype O:8, biovar 1B))", "experiment": "cross-linking; refolded YsaL-His (100 µg in 30 µl), 2 µL of 1.5% glutaraldehyde, 25°C, 5 min; 50 mM sodium phosphate pH 8.0, 150 mM NaCl; SDS-PAGE"}, "[3]": {"target": "YsaN-His (full length YsaN, YE3544, with N-terminal His tag) (Yersinia enterocolitica ATCC51871 (serotype O:8, biovar 1B))", "experiment": "SEC"}, "[4]": {"target": "YsaN-His (full length YsaN, YE3544, with N-terminal His tag) (Yersinia enterocolitica ATCC51871 (serotype O:8, biovar 1B))", "experiment": "dynamic light scattering; YsaN-His 0.7 mg/ml, 25°C, 25 mM Tris, 300 mM NaCl, 2% glycerol; mass from the hydrodynamic size"}, "[5]": {"target": "YsaN-His (full length YsaN, YE3544, with N-terminal His tag) (Yersinia enterocolitica ATCC51871 (serotype O:8, biovar 1B))"}, "[6]": {"target": "YsaN-His (full length YsaN, YE3544, with N-terminal His tag) (Yersinia enterocolitica ATCC51871 (serotype O:8, biovar 1B))", "experiment": "SPR"}, "[7]": {"target": "YsaNΔ(1–5)-His (Yersinia enterocolitica ATCC51871 (serotype O:8, biovar 1B))", "experiment": "SPR"}, "[8]": {"target": "YsaNΔ(411–430)-His (Yersinia enterocolitica ATCC51871 (serotype O:8, biovar 1B))", "experiment": "SPR"}, "[9]": {"target": "YsaNΔ(426–430)-His (Yersinia enterocolitica ATCC51871 (serotype O:8, biovar 1B))", "experiment": "SPR"}, "[10]": {"target": "YsaN-His (full length YsaN, soluble) (Yersinia enterocolitica ATCC51871)", "experiment": "SPR"}, "[11]": {"target": "YsaNflr-His (full length YsaN, refolded) (Yersinia enterocolitica ATCC51871)", "experiment": "SPR"}, "[12]": {"target": "YsaNΔ(1-5)-His (Yersinia enterocolitica ATCC51871)", "experiment": "SPR"}, "[13]": {"target": "YsaNΔ(411-430)-His (Yersinia enterocolitica ATCC51871)", "experiment": "SPR"}, "[14]": {"target": "YsaNΔ(426-430)-His (Yersinia enterocolitica ATCC51871)", "experiment": "SPR"}}, "note": "“And” between values parts separate entries of the source, which are not always exact repeats. Equal entries are not always repeated.", "data": [{"substance": "YsaL-His (YE3555 with N-terminal His tag, refolded) (natural protein)", "values": [{"measurement": "stoichiometry N", "setting": "[1]", "result": 2}, {"measurement": "stoichiometry N", "setting": "[2]", "result": 2}]}, {"substance": "YsaN-His (full length YsaN, YE3544, with N-terminal His tag) (enzyme)", "values": [{"measurement": "stoichiometry N", "setting": "[3]", "result": 12}, {"measurement": "percent of sample in the oligomeric form", "setting": "[4]", "result": 90, "unit": "%"}]}, {"substance": "untagged YsaL (YE3555) (natural protein)", "values": [{"measurement": "inhibition of the ATPase activity of YsaN-His (malachite green assay); untagged YsaL in the soluble co-purified untagged YsaL-YsaN-His complex, highly comparable with YsaL-His added at 2∶1", "setting": "[5]", "result": 73, "unit": "%"}, {"measurement": "stoichiometry N (YsaL per YsaN)", "setting": "[3]", "result": 2}, {"measurement": "Kd", "setting": "[6]", "result": "35 nM and 42 nM"}, {"measurement": "Kd", "setting": "[7]", "result": 400000, "unit": "nM"}, {"measurement": "Kd", "setting": "[8]", "result": 100, "unit": "nM"}, {"measurement": "Kd", "setting": "[9]", "result": 100, "unit": "nM"}]}, {"substance": "untagged YsaL (YE3555), refolded (natural protein)", "values": [{"measurement": "Ka", "setting": "[10]", "result": "2.9e+07", "unit": "M⁻¹"}, {"measurement": "koff", "setting": "[10]", "result": 0.000119, "unit": "s⁻¹"}, {"measurement": "kon", "setting": "[10]", "result": 3450, "unit": "M⁻¹ s⁻¹"}, {"measurement": "Ka", "setting": "[11]", "result": "2.38e+08", "unit": "M⁻¹"}, {"measurement": "koff", "setting": "[11]", "result": "1.91e-05", "unit": "s⁻¹"}, {"measurement": "kon", "setting": "[11]", "result": 4540, "unit": "M⁻¹ s⁻¹"}, {"measurement": "Ka", "setting": "[12]", "result": 20300, "unit": "M⁻¹"}, {"measurement": "Ka", "setting": "[13]", "result": "3.86e+06", "unit": "M⁻¹"}, {"measurement": "Kd", "setting": "[13]", "result": 260, "unit": "nM"}, {"measurement": "koff", "setting": "[13]", "result": 0.000132, "unit": "s⁻¹"}, {"measurement": "kon", "setting": "[13]", "result": 510, "unit": "M⁻¹ s⁻¹"}, {"measurement": "Ka", "setting": "[14]", "result": 882000, "unit": "M⁻¹"}]}]}
